Reference: patent US20190233495A1 (Sanofi, published 2019)
Non-standard residues stand in square brackets, D forms with d. αMeK = C[C@](N)(CCCCN)C(=O)O; Nle = CCCC[C@H](N)C(=O)O; Aib = CC(C)(N)C(=O)O

T1: RXFP1 receptor (UniProt Q9HBX9 1-757, limits assumed)
T1 sequence (looked up): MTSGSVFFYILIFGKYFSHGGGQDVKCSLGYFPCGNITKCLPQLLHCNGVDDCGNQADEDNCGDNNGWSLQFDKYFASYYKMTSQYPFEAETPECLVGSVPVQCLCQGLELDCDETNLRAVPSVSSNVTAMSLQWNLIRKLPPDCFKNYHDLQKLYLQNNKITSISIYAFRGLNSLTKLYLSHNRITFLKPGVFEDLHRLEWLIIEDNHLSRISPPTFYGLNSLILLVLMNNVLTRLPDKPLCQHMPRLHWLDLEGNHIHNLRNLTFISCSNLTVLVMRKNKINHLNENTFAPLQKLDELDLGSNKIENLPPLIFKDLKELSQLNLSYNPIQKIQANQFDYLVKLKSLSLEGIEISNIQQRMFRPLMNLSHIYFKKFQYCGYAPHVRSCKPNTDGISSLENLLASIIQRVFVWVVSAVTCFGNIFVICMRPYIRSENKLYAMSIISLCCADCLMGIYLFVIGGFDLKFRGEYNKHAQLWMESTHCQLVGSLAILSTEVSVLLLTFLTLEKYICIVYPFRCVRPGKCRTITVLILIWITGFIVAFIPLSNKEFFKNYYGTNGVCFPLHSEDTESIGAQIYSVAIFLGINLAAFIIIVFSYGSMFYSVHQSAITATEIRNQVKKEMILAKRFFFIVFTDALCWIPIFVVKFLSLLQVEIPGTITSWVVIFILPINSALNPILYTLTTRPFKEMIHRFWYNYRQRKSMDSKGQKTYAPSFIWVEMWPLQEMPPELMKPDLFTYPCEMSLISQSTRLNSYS


Molecular target: T1, RXFP1 receptor
Assay: cell-based or functional assay

cAMP assay in OVCAR 5 cells EC50 | cAMP assay in OVCAR 5 cells Emax | Binder
14.5 nM | 100% | Ac-LEGREKVRAK(Ac)I[Aib][Aib]EG[Nle]STWSK(Ac)RKKK(Ac)-NH2 (SMILES CCCC[C@H](NC(=O)CNC(=O)[C@H](CCC(=O)O)NC(=O)C(C)(C)NC(=O)C(C)(C)NC(=O)[C@@H](NC(=O)[C@H](CCCCNC(C)=O)NC(=O)[C@H](C)NC(=O)[C@H](CCCNC(=N)N)NC(=O)[C@@H](NC(=O)[C@H](CCCCN)NC(=O)[C@H](CCC(=O)O)NC(=O)[C@H](CCCNC(=N)N)NC(=O)CNC(=O)[C@H](CCC(=O)O)NC(=O)[C@H](CC(C)C)NC(C)=O)C(C)C)[C@@H](C)CC)C(=O)N[C@@H](CO)C(=O)N[C@H](C(=O)N[C@@H](Cc1c[nH]c2ccccc12)C(=O)N[C@@H](CO)C(=O)N[C@@H](CCCCNC(C)=O)C(=O)N[C@@H](CCCNC(=N)N)C(=O)N[C@@H](CCCCN)C(=O)N[C@@H](CCCCN)C(=O)N[C@@H](CCCCNC(C)=O)C(N)=O)[C@@H](C)O) [SEQ ID NO: 26]
4.2 nM | 100% | Ac-LEGREKVRAK(Ac)I[Aib][Aib]EG[Nle]STWSK(Ac)RKKK-NH2 (SMILES CCCC[C@H](NC(=O)CNC(=O)[C@H](CCC(=O)O)NC(=O)C(C)(C)NC(=O)C(C)(C)NC(=O)[C@@H](NC(=O)[C@H](CCCCNC(C)=O)NC(=O)[C@H](C)NC(=O)[C@H](CCCNC(=N)N)NC(=O)[C@@H](NC(=O)[C@H](CCCCN)NC(=O)[C@H](CCC(=O)O)NC(=O)[C@H](CCCNC(=N)N)NC(=O)CNC(=O)[C@H](CCC(=O)O)NC(=O)[C@H](CC(C)C)NC(C)=O)C(C)C)[C@@H](C)CC)C(=O)N[C@@H](CO)C(=O)N[C@H](C(=O)N[C@@H](Cc1c[nH]c2ccccc12)C(=O)N[C@@H](CO)C(=O)N[C@@H](CCCCNC(C)=O)C(=O)N[C@@H](CCCNC(=N)N)C(=O)N[C@@H](CCCCN)C(=O)N[C@@H](CCCCN)C(=O)N[C@@H](CCCCN)C(N)=O)[C@@H](C)O) [SEQ ID NO: 25]
47.9 nM | 92% | Ac-LEGREKVRAK(Ac)I[Aib][Aib]EG[Nle]STWS[Aib]RKK-NH2 (SMILES CCCC[C@H](NC(=O)CNC(=O)[C@H](CCC(=O)O)NC(=O)C(C)(C)NC(=O)C(C)(C)NC(=O)[C@@H](NC(=O)[C@H](CCCCNC(C)=O)NC(=O)[C@H](C)NC(=O)[C@H](CCCNC(=N)N)NC(=O)[C@@H](NC(=O)[C@H](CCCCN)NC(=O)[C@H](CCC(=O)O)NC(=O)[C@H](CCCNC(=N)N)NC(=O)CNC(=O)[C@H](CCC(=O)O)NC(=O)[C@H](CC(C)C)NC(C)=O)C(C)C)[C@@H](C)CC)C(=O)N[C@@H](CO)C(=O)N[C@H](C(=O)N[C@@H](Cc1c[nH]c2ccccc12)C(=O)N[C@@H](CO)C(=O)NC(C)(C)C(=O)N[C@@H](CCCNC(=N)N)C(=O)N[C@@H](CCCCN)C(=O)N[C@@H](CCCCN)C(N)=O)[C@@H](C)O) [SEQ ID NO: 24]

The remaining lines, values behind:

Binder | cAMP assay in OVCAR 5 cells EC50 | cAMP assay in OVCAR 5 cells Emax
Ac-LEGREKVRAQI[Aib][Aib]EG[Nle]STWS[Aib]RKK-NH2 (SMILES CCCC[C@H](NC(=O)CNC(=O)[C@H](CCC(=O)O)NC(=O)C(C)(C)NC(=O)C(C)(C)NC(=O)[C@@H](NC(=O)[C@H](CCC(N)=O)NC(=O)[C@H](C)NC(=O)[C@H](CCCNC(=N)N)NC(=O)[C@@H](NC(=O)[C@H](CCCCN)NC(=O)[C@H](CCC(=O)O)NC(=O)[C@H](CCCNC(=N)N)NC(=O)CNC(=O)[C@H](CCC(=O)O)NC(=O)[C@H](CC(C)C)NC(C)=O)C(C)C)[C@@H](C)CC)C(=O)N[C@@H](CO)C(=O)N[C@H](C(=O)N[C@@H](Cc1c[nH]c2ccccc12)C(=O)N[C@@H](CO)C(=O)NC(C)(C)C(=O)N[C@@H](CCCNC(=N)N)C(=O)N[C@@H](CCCCN)C(=O)N[C@@H](CCCCN)C(N)=O)[C@@H](C)O) [SEQ ID NO: 3] | 12 nM | 97%
Ac-LEGREKVRA[Aib]I[Aib][Aib]EG[Nle]STWSKRKK-NH2 (SMILES CCCC[C@H](NC(=O)CNC(=O)[C@H](CCC(=O)O)NC(=O)C(C)(C)NC(=O)C(C)(C)NC(=O)[C@@H](NC(=O)C(C)(C)NC(=O)[C@H](C)NC(=O)[C@H](CCCNC(=N)N)NC(=O)[C@@H](NC(=O)[C@H](CCCCN)NC(=O)[C@H](CCC(=O)O)NC(=O)[C@H](CCCNC(=N)N)NC(=O)CNC(=O)[C@H](CCC(=O)O)NC(=O)[C@H](CC(C)C)NC(C)=O)C(C)C)[C@@H](C)CC)C(=O)N[C@@H](CO)C(=O)N[C@H](C(=O)N[C@@H](Cc1c[nH]c2ccccc12)C(=O)N[C@@H](CO)C(=O)N[C@@H](CCCCN)C(=O)N[C@@H](CCCNC(=N)N)C(=O)N[C@@H](CCCCN)C(=O)N[C@@H](CCCCN)C(N)=O)[C@@H](C)O) [SEQ ID NO: 19] | 18.2 nM | 97%
Ac-LEGREKVRAQI[Aib][Aib]EG[Nle]STWT[Aib]RKK-NH2 (SMILES CCCC[C@H](NC(=O)CNC(=O)[C@H](CCC(=O)O)NC(=O)C(C)(C)NC(=O)C(C)(C)NC(=O)[C@@H](NC(=O)[C@H](CCC(N)=O)NC(=O)[C@H](C)NC(=O)[C@H](CCCNC(=N)N)NC(=O)[C@@H](NC(=O)[C@H](CCCCN)NC(=O)[C@H](CCC(=O)O)NC(=O)[C@H](CCCNC(=N)N)NC(=O)CNC(=O)[C@H](CCC(=O)O)NC(=O)[C@H](CC(C)C)NC(C)=O)C(C)C)[C@@H](C)CC)C(=O)N[C@@H](CO)C(=O)N[C@H](C(=O)N[C@@H](Cc1c[nH]c2ccccc12)C(=O)N[C@H](C(=O)NC(C)(C)C(=O)N[C@@H](CCCNC(=N)N)C(=O)N[C@@H](CCCCN)C(=O)N[C@@H](CCCCN)C(N)=O)[C@@H](C)O)[C@@H](C)O) [SEQ ID NO: 23] | 128 nM | 95%
Ac-LEGREKVRAQI[Aib][Aib]EG[Nle]STWA[Aib]RKK-NH2 (SMILES CCCC[C@H](NC(=O)CNC(=O)[C@H](CCC(=O)O)NC(=O)C(C)(C)NC(=O)C(C)(C)NC(=O)[C@@H](NC(=O)[C@H](CCC(N)=O)NC(=O)[C@H](C)NC(=O)[C@H](CCCNC(=N)N)NC(=O)[C@@H](NC(=O)[C@H](CCCCN)NC(=O)[C@H](CCC(=O)O)NC(=O)[C@H](CCCNC(=N)N)NC(=O)CNC(=O)[C@H](CCC(=O)O)NC(=O)[C@H](CC(C)C)NC(C)=O)C(C)C)[C@@H](C)CC)C(=O)N[C@@H](CO)C(=O)N[C@H](C(=O)N[C@@H](Cc1c[nH]c2ccccc12)C(=O)N[C@@H](C)C(=O)NC(C)(C)C(=O)N[C@@H](CCCNC(=N)N)C(=O)N[C@@H](CCCCN)C(=O)N[C@@H](CCCCN)C(N)=O)[C@@H](C)O) [SEQ ID NO: 22] | 57.1 nM | 102%
Ac-LEGREKVRA[Aib]I[Aib][Aib]EG[Nle]STWS[αMeK]RKK-NH2 (SMILES CCCC[C@H](NC(=O)CNC(=O)[C@H](CCC(=O)O)NC(=O)C(C)(C)NC(=O)C(C)(C)NC(=O)[C@@H](NC(=O)C(C)(C)NC(=O)[C@H](C)NC(=O)[C@H](CCCNC(=N)N)NC(=O)[C@@H](NC(=O)[C@H](CCCCN)NC(=O)[C@H](CCC(=O)O)NC(=O)[C@H](CCCNC(=N)N)NC(=O)CNC(=O)[C@H](CCC(=O)O)NC(=O)[C@H](CC(C)C)NC(C)=O)C(C)C)[C@@H](C)CC)C(=O)N[C@@H](CO)C(=O)N[C@H](C(=O)N[C@@H](Cc1c[nH]c2ccccc12)C(=O)N[C@@H](CO)C(=O)N[C@@](C)(CCCCN)C(=O)N[C@@H](CCCNC(=N)N)C(=O)N[C@@H](CCCCN)C(=O)N[C@@H](CCCCN)C(N)=O)[C@@H](C)O) [SEQ ID NO: 20] | 1.8 nM | 97%
Ac-LEGREKVRAQI[Aib][Aib]EG[Nle]STWS[Aib]RKK(Ac)-NH2 (SMILES CCCC[C@H](NC(=O)CNC(=O)[C@H](CCC(=O)O)NC(=O)C(C)(C)NC(=O)C(C)(C)NC(=O)[C@@H](NC(=O)[C@H](CCC(N)=O)NC(=O)[C@H](C)NC(=O)[C@H](CCCNC(=N)N)NC(=O)[C@@H](NC(=O)[C@H](CCCCN)NC(=O)[C@H](CCC(=O)O)NC(=O)[C@H](CCCNC(=N)N)NC(=O)CNC(=O)[C@H](CCC(=O)O)NC(=O)[C@H](CC(C)C)NC(C)=O)C(C)C)[C@@H](C)CC)C(=O)N[C@@H](CO)C(=O)N[C@H](C(=O)N[C@@H](Cc1c[nH]c2ccccc12)C(=O)N[C@@H](CO)C(=O)NC(C)(C)C(=O)N[C@@H](CCCNC(=N)N)C(=O)N[C@@H](CCCCN)C(=O)N[C@@H](CCCCNC(C)=O)C(N)=O)[C@@H](C)O) [SEQ ID NO: 21] | 32.8 nM | 96%
